Data taken from patent publication US20200121703A1 (CLEVELAND CLINIC FOUNDATION, published 2020).

Target: T1, PAG (protein associated with glycosphingolipid-enriched microdomains) (UniProt Q9NWQ8 1-432)
T1 construct: Endogenous protein of human tumor cell lines, probed by immunoblot in the CD55 immunoprecipitate
T1 sequence (looked up): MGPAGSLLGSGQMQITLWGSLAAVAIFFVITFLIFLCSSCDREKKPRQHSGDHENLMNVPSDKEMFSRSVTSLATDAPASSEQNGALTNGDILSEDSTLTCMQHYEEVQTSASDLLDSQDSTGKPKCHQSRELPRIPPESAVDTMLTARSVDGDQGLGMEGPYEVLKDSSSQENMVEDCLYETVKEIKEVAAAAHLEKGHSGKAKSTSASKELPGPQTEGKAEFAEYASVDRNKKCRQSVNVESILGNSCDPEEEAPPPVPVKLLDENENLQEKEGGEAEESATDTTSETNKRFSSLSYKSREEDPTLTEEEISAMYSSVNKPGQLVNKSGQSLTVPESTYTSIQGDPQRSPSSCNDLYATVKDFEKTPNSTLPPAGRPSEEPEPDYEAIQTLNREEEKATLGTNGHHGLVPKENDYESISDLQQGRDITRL
Test: co-immunoprecipitation with anti-CD55 antibody from endometrioid CSC lysates, immunoblot for PAG
Protocol: Membranes were incubated overnight at 4° C. with primary antibodies against CD55 (1:1000) (Santa Cruz, Calif.), CD59 (1:1000) (Abcam), CD46 (1:1000) (Santa Cruz, Calif.), NANOG (1:500) (Cell Signaling), SOX2 (1:500) (Cell Signaling), OCT4 (1:500) (Cell Signaling), ROR2 (1:1000) (BD Biosciences), pJNK1 (1:1000) (T183/Y185) (Cell Signaling), JNK1 (1:1000) (Cell Signaling), p-c-Jun (1:1000) (S73) (Cell Signaling), p-c-Jun (1:1000) (S63) (Cell Signaling), c-Jun (1:1000) (Cell Signaling), pLCK (Y394) (1:1000) (BD Biosciences), LCK (1:1000) (Santa Cruz, Calif.), LIME (1:1000) (Invitrogen), PAG (1:1000) (Genetex), and (3-actin (1:1000) (Cell Signaling). Secondary anti-mouse or anti-rabbit IgG antibodies conjugated to horse radish peroxidase (HRP) (1:2000) (Thermo, Rockford, IL) were used and immunoreactive bands were visualized using the ECL plus from Pierce (Rockford, Ill., USA).
The lysates were spun at 12,000xg for 15 min at 4° C. Supernatants were incubated with rabbit anti-human CD55 primary antibody (SantaCruz, Calif.) and the corresponding antibody control for 1 hour at 4° C. Protein A/G agarose beads (Santa Cruz, Dallas, Tex.) were added to lysates which were subsequently incubated on a rotating mixer overnight at 4° C. The beads were then washed 3-4 times at 4° C., and Laemmli sample buffer was added to the beads and boiled for 5 minutes. […]

B1: CD55 (decay accelerating factor) (other, human, UniProt P08174 35-353, looked up)
chain: DCGLPPDVPNAQPALEGRTSFPEDTVITYKCEESFVKIPGEKDSVICLKGSQWSDIEEFCNRSCEVPTRLNSASLKQPYITQNYFPVGTVVEYECRPGYRREPSLSPKLTCLQNLKWSTAVEFCKKKSCPNPGEIRNGQIDVPGGILFGATISFSCNTGYKLFGSTSSFCLISGSSVQWSDPLPECREIYCPAPPQIDNGIIQGERDHYGYRQSVTYACNKGFTMIGEHSIYCTVNNDEGEWSGPPPECRGKSLTSKVPPTVQKPTTVNVPTTEVSPTSQKTTTKTTTPNAQATRSTPVSRTTKHFHETTPNKGSGTTS
modifications: GPI anchor (glycophosphatidylinositol-anchored to lipid rafts)
notes: Endogenous protein pulled down from 0.5% Triton X-100 cell lysates
Q: Does B1 bind?
A: no binding
